# In patent US20230257470A1 (published 2023):
# Substitutions are numbered along the chain they refer to. Names may count otherwise.
# T1: human FcγRIIb (human, UniProt P31994 43-217)
# T1 construct: also called FcγIIB
# T1 sequence: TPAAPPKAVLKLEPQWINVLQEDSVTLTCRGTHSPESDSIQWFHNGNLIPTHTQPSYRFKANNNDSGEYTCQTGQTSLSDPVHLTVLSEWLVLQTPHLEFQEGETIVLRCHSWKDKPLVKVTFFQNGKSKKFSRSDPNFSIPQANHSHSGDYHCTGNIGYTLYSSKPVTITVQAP
# T2: human FcγRIIa type R (human, UniProt P12318 36-217)
# T2 construct: also called FcγRIIaR; Fc γ RIIaR
# T2 chain: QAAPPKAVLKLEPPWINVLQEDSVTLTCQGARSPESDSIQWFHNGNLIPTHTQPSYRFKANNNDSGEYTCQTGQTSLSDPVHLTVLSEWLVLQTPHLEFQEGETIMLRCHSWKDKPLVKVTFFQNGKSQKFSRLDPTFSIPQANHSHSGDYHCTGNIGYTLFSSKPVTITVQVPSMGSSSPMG
# T3: human FcγRIIb (human, UniProt P31994 43-217, limits assumed)
# T3 construct: Soluble analyte in SPR; also called hFcgRIIb; FcgRIIb
# T3 sequence: T1 sequence
# T4: human FcγRIIa(H) (allotype H131) (human, UniProt P12318 36-217)
# T4 construct: Soluble analyte in SPR; also called hFcgRIIa(H); FcgRIIaH
# T4 sequence: T2 chain with R133H
# T5: human FcγRIIa(R) (allotype R131) (human, UniProt P12318 36-217)
# T5 construct: Soluble analyte in SPR; also called hFcgRIIa(R); FcgRIIaR
# T5 chain: T2 chain
# B1: IL6R-F652/IL6R-L (antibody, human IgG1)
# heavy: QVQLQESGPGLVKPSETLSLTCAVSGHSISHDHAWSWVRQPPGEGLEWIGFISYSGITNYNPSLQGRVTISRDNSKNTLYLQMNSLRAEDTAVYYCARSLARTTAMDYWGEGTLVTVSSASTKGPSVFPLAPSSKSTSGGTAALGCLVKDYFPEPVTVSWNSGALTSGVHTFPAVLQSSGLYSLSSVVTVPSSSLGTQTYICNVNHKPSNTKVDKKVEPKSCDKTHTCPPCPAPELLGGDSVFLFPPKPKDTLYISRTPEVTCVVVDVSHEDPEVKFNWYVDGVEVHNAKTKPREEQYNSTYRVVSVLTVLHQDWLNGKEYKCKVSNKALPAPIEKTISKAKGQPREPQVYTLPPSRDELTKNQVSLTCLVKGFYPSDIAVEWESNGQPENNYKTTPPVLDSDGSFFLYSKLTVDKSRWQQGNVFSCSVMHEALHYHYTQKSLSLSP
# light: DIQMTQSPSSLSASVGDRVTITCRASQDISSYLNWYQQKPGKAPKLLIYYTSRLHSGVPSRFSGSGSGTDFTFTISSLQPEDIATYYCQQGNTLPYTFGQGTKVEIK
# notes: P238D introduced into IL6R-F11 (M252Y/N434Y in IL6R-G1d); also called P238D
# B2: IL6R-PD095/IL6R-L (antibody, human IgG1)
# heavy: B1 heavy with G239Y
# light: B1 light
# notes: Alterations introduced into IL6R-F11; also called P238D/G237Y
# B3: IL6R-PD082/IL6R-L (antibody, human IgG1)
# heavy: B1 heavy with G239F
# light: B1 light
# notes: Alterations introduced into IL6R-F11; also called P238D/G237F
# B4: IL6R-PD097/IL6R-L (antibody, human IgG1)
# heavy: B1 heavy with S241D
# light: B1 light
# notes: Alterations introduced into IL6R-F11; also called P238D/S239D
# B5: IL6R-PD087/IL6R-L (antibody, human IgG1)
# heavy: B1 heavy with G239M
# light: B1 light
# notes: Alterations introduced into IL6R-F11; also called P238D/G237M
# B6: IL6R-PD079/IL6R-L (antibody, human IgG1)
# heavy: B1 heavy with G239A
# light: B1 light
# notes: Alterations introduced into IL6R-F11; also called P238D/G237A
# B7: IL6R-PD086/IL6R-L (antibody, human IgG1)
# heavy: B1 heavy with G239L
# light: B1 light
# notes: Alterations introduced into IL6R-F11; also called P238D/G237L
# B8: IL6R-PD081/IL6R-L (antibody, human IgG1)
# heavy: B1 heavy with G239E
# light: B1 light
# notes: Alterations introduced into IL6R-F11; also called P238D/G237E
# B9: IL6R-PD080/IL6R-L (antibody)
# heavy: B1 heavy with G239D
# light: B1 light
# notes: Alterations introduced into IL6R-F11; also called P238D/G237D
# B10: IL6R-PD043/IL6R-L (antibody, human IgG1)
# heavy: B1 heavy with L236Y
# light: B1 light
# notes: Alterations introduced into IL6R-F11; also called P238D/L234Y
# B11: IL6R-PD094/IL6R-L (antibody, human IgG1)
# heavy: B1 heavy with G239W
# light: B1 light
# notes: Alterations introduced into IL6R-F11; also called P238D/G237W
# B12: IL6R-PD042/IL6R-L (antibody, human IgG1)
# heavy: B1 heavy with L236W
# light: B1 light
# notes: Alterations introduced into IL6R-F11; also called P238D/L234W
# B13: GpH7-B3 variant P329Y / GpL16-k0 (antibody, human IgG1)
# heavy: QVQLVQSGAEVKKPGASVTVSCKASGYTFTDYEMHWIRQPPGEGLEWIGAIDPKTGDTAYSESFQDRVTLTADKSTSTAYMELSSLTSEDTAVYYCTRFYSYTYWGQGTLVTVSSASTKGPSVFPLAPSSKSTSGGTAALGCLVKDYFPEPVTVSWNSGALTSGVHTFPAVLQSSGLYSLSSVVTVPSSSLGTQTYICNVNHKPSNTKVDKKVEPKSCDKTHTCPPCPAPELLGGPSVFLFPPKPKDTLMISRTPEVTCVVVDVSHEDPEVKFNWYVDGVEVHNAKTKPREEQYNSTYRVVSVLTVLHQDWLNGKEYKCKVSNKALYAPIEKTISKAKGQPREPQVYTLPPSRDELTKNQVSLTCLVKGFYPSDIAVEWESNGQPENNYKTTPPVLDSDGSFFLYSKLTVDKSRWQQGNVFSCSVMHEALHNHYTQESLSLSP
# light: DIVMTQSPLSLPVTPGEPASISCQASESLVHSNRNTYLHWYLQKPGQSPQLLIYKVSNRFSGVPDRFSGSGSGTDFTLKISRVEAEDVGVYYCSQNTHVPPTFGQGTKVEIE
# notes: Anti-glypican-3 human IgG1 with B3 constant region; position by EU numbering
# B14: GpH7-B3 variant P331R / GpL16-k0 (antibody, human IgG1)
# heavy: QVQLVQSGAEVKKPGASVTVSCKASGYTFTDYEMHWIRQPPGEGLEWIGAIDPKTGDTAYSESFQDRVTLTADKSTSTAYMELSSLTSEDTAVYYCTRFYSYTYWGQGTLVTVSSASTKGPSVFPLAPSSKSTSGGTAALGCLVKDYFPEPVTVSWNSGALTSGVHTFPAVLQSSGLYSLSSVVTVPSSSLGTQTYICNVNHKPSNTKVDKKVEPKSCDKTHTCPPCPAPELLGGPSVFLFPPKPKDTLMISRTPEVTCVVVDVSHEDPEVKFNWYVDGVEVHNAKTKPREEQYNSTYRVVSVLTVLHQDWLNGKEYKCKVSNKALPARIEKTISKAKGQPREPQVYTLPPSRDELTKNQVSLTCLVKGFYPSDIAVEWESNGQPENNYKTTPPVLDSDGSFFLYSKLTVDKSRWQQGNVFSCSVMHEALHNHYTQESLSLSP
# light: B13 light
# notes: as for B13
# B15: GpH7-B3 variant P331K / GpL16-k0 (antibody, human IgG1)
# heavy: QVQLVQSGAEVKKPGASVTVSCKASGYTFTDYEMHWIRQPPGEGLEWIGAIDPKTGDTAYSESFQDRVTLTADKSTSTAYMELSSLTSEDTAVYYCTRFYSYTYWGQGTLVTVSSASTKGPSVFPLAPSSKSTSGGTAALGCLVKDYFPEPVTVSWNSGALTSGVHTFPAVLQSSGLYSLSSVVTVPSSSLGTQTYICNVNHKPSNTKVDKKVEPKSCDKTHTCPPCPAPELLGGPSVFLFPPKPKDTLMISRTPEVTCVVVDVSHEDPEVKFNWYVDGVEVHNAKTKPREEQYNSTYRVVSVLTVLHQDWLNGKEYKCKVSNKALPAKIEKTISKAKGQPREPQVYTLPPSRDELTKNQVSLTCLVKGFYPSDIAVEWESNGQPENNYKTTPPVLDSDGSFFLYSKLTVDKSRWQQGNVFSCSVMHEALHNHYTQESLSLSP
# light: B13 light
# notes: as for B13
# B16: antibody containing VH3-IgG2-F890 for the heavy chain and L(WT)-CK for the light chain (antibody)
# heavy: QVQLQESGPGLVKPSETLSLTCAVSGHSISHDHAWSWVRQPPGEGLEWIGFISYSGITNYNPSLQGRVTISRDNSKNTLYLQMNSLRAEDTAVYYCARSLARTTAMDYWGEGTLVTVSSASTKGPSVFPLAPCSRSTSESTAALGCLVKDYFPEPVTVSWNSGALTSGVHTFPAVLQSSGLYSLSSVVTVPSSNFGTQTYTCNVDHKPSNTKVDKTVERKCCVECPPCPAPPVAGPSVFLFPPKPKDTLYISRTPEVTCVVVDVSHEDPEVQFNWYVDGVEVHNAKTKPREEQFNSTFRVVSVLTVVHQDWLNGKEYKCKVSNKGLPAPIEKTISKTKGQPREPQVYTLPPSREEMTKNQVSLTCLVKGFYPSDIAVEWESNGQPENNYKTTPPMLDSDGSFFLYSKLTVDKSRWQQGNVFSCSVMHEALHYHVTQKSLSLSP
# light: not shown
# notes: VH3-IgG2 with M252Y/N434Y/Y436V (EU numbering)
# B17: antibody containing VH3-IgG2-F939 for the heavy chain and L(WT)-CK for the light chain (antibody)
# heavy: B16 heavy with A234R, S237K
# light: not shown
# notes: VH3-IgG2 with A235R/S239K/M252Y/N434Y/Y436V (EU numbering)
# B18: antibody containing VH3-IgG2 for the heavy chain and L(WT)-CK for the light chain (antibody)
# heavy: B16 heavy with Y250M, Y432N, V434Y
# light: not shown
# Molecular target: T1, human FcγRIIb
# Assay: SPR (Biacore), captured antibody, FcγR as analyte; binding amount divided by that of IL6R-F652/IL6R-L, times 100
row,RELATIVE BINDING ACTIVITY FOR FcγRIIb,Binder
1,100 relative (IL6R-F652/IL6R-L = 100),B1
2,124 relative (IL6R-F652/IL6R-L = 100),B2
3,108 relative (IL6R-F652/IL6R-L = 100),B3
4,139 relative (IL6R-F652/IL6R-L = 100),B4
5,109 relative (IL6R-F652/IL6R-L = 100),B5
6,101 relative (IL6R-F652/IL6R-L = 100),B6
7,112 relative (IL6R-F652/IL6R-L = 100),B7
8,101 relative (IL6R-F652/IL6R-L = 100),B8
9,127 relative (IL6R-F652/IL6R-L = 100),B9
10,112 relative (IL6R-F652/IL6R-L = 100),B10
11,122 relative (IL6R-F652/IL6R-L = 100),B11
12,106 relative (IL6R-F652/IL6R-L = 100),B12

# Molecular target: T2, human FcγRIIa type R
# Assay: as above
row,RELATIVE BINDING ACTIVITY FOR FcγRIIaR,Binder
1,100 relative (IL6R-F652/IL6R-L = 100),B1
2,543 relative (IL6R-F652/IL6R-L = 100),B2
3,380 relative (IL6R-F652/IL6R-L = 100),B3
4,844 relative (IL6R-F652/IL6R-L = 100),B4
5,196 relative (IL6R-F652/IL6R-L = 100),B5
6,138 relative (IL6R-F652/IL6R-L = 100),B6
7,268 relative (IL6R-F652/IL6R-L = 100),B7
8,117 relative (IL6R-F652/IL6R-L = 100),B8
9,222 relative (IL6R-F652/IL6R-L = 100),B9
10,175 relative (IL6R-F652/IL6R-L = 100),B10
11,593 relative (IL6R-F652/IL6R-L = 100),B11
12,240 relative (IL6R-F652/IL6R-L = 100),B12

# Molecular target: T3, human FcγRIIb
# Assay: SPR (Biacore), antibody captured, FcγR analyte, 25 C; normalised to captured antibody, GpH7-B3/GpL16-k0 = 100;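 further: antibodies held on sensor chips through immobilized antigen peptide, Protein A, Protein A/G or Protein L, with HBS-EP+ running buffer and FcγR in solution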
# Protocol: (§1) Interaction between each modified antibody and Fcγ receptor prepared in the manner described above was analyzed using the BIACORE™ T100 surface plasmon resonance system (GE Healthcare), BIACORE™ T200 surface plasmon resonance system (GE Healthcare), BIACORE™ A100 surface plasmon resonance system or BIACORE™ 4000 surface plasmon resonance system. HBS-EP+(GE Healthcare) was used for the running buffer, and measurements were carried out at 25° C. The chips used were chips in which antigen peptides, Protein A (Thermo Scientific), Protein A/G (Thermo Scientific) or Protein L (ACTIGEN® protein (Alltech or BioVision) were immobilized on the Series S Sensor Chip CM5 (GE Healthcare) or Series S Sensor Chip CM4 (GE Healthcare) by amine coupling, or chips in which preliminarily biotinylated antigen peptides were allowed to interact and then immobilized on the Series S Sensor Chip SA (certified) (GE Healthcare). The target antibodies were captured on these sensor chips, Fcγ receptor diluted with the running buffer was allowed to interact, followed by measurement of the amount of bound antibody. The amounts bound were compared between antibodies. However, since the amount of Fcγ receptor bound depends on the amount of captured antibody, the values used for comparison were first corrected by dividing the amount of Fcγ receptor bound by the captured amount of each antibody. Through reaction with 10 mM glycine-HCl at pH 1.5, the sensor chips were regenerated by washing off antibody captured on the sensor chips and used repeatedly.
# (§2) Binding strength was evaluated according to the following method based on the results of analyzing the interaction with each FcγR. […] That value was then further multiplied by 100, and the resulting value was used as an indicator of relative binding activity to each FcγR.
row,relative binding activity (parent antibody = 100),Binder
1,-3 % of control,B13
2,55 % of control,B14
3,63 % of control,B15

# Molecular target: T6, human FcγRIa (human, UniProt P12314 16-292, limits assumed)
# T6 construct: Soluble analyte in SPR; also called hFcgRIa; FcgRIa
# Assay: as above
# Protocol: as §1, §2
# T6 sequence (P12314 16-292 limits assumed): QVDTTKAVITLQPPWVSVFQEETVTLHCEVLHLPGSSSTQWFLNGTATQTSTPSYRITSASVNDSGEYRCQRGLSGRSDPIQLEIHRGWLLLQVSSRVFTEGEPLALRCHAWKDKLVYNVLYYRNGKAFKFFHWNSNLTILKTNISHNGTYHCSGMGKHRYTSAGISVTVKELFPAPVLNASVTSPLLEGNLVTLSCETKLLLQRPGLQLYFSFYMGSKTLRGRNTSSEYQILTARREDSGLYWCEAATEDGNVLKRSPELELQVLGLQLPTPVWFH
row,relative binding activity (parent antibody = 100),Binder
1,76 % of control,B13
2,95 % of control,B14
3,98 % of control,B15

# Molecular target: T4, human FcγRIIa(H) (allotype H131)
# Assay: as above
# Protocol: as §1, §2
row,relative binding activity (parent antibody = 100),Binder
1,0 % of control,B13
2,59 % of control,B14
3,58 % of control,B15

# Molecular target: T7, human FcγRIIIa(F) (allotype F158) (human, UniProt P08637 17-208, limits assumed)
# T7 construct: also called hFcgRIIIa(F); FcgRIIIaF
# Assay: as above
# Protocol: as §1, §2
# T7 sequence (P08637 other isoform, or with tags, fused parts or gaps limits assumed): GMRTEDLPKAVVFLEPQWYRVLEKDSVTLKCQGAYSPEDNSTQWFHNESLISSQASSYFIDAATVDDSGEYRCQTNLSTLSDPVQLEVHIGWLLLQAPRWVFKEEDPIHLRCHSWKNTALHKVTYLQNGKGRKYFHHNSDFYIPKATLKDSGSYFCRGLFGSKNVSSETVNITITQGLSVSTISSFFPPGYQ
row,relative binding activity (parent antibody = 100),Binder
1,0 % of control,B13
2,38 % of control,B14
3,34 % of control,B15

# Molecular target: T5, human FcγRIIa(R) (allotype R131)
# Assay: as above
# Protocol: as §1, §2
row,relative binding activity (parent antibody = 100),Binder
1,-1 % of control,B13
2,64 % of control,B14
3,72 % of control,B15

# Molecular target: T8, human FcγRIIIa(V) (allotype V158) (human, UniProt P08637 17-208, limits assumed)
# T8 construct: also called hFcgRIIIa(V)
# Assay: SPR (Biacore), antibody captured by Protein L, FcγR as analyte, pH 7.4, 25 C;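 further: Buffer-blank-subtracted FcγR response, normalized to the captured antibody level and scaled to 1500 RU of captured antibody, CM4 chip, ACES-NaCl running buffer with polysorbate 20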
# Protocol: (§3) Binding activity between the antibodies and human FcγRIa, FcγRIIa(H), FcγRIIa(R), FcγRIIb and FcγRIIIa(F) (hereinafter referred to as human FcγRs) was evaluated using the BIACORE™ T100 or T200 surface plasmon resonance system (GE Healthcare). The antibodies being tested were captured by Protein L (ACTIGEN® protein (Alltech)) that was immobilized in suitable amounts on the CM4 Sensor Chip (GE Healthcare) by amine coupling. Next, the diluted human FcγRs and a running buffer used as a blank were injected to allow interaction with the antibodies captured on the sensor chip. A buffer consisting of 20 mmol/L N-(2-acetamido)-2-aminoethanesulfonic acid (ACES), 150 mmol/L NaCl and 0.05% (w/v) polysorbate 20 (Tween 20®) (pH 7.4) was used for the running buffer, and this buffer was also used to dilute the human FcγRs. 10 mmol/L glycine-HCl (pH 1.5) was used to regenerate the sensor chip. All measurements were carried out at 25° C.
# (§4) Binding activity to human FcγRs can be represented by the relative binding activity to human FcγRs. Antibody was captured by Protein L, and the amount of change in a sensorgram before and after the antibody was captured was defined as X1. Next, human FcγRs were allowed to interact with the antibody, and the value obtained by subtracting binding activity of human FcγRs represented as the amount of change in a sensorgram before and after allowing the running buffer to interact with antibody captured by Protein L (ΔA2) from the value obtained by multiplying by 1500 the value obtained by dividing the binding activity of human FcγRs represented as the amount of change in a sensorgram before and after that interaction (ΔA1) by the captured amount (X) of each antibody, was divided by the captured amount of each antibody (X) followed by multiplying by 1500 to obtain the binding activity of the human FcγRs (Y) (Equation 2).
# T8 sequence (P08637 other isoform, or with tags, fused parts or gaps limits assumed): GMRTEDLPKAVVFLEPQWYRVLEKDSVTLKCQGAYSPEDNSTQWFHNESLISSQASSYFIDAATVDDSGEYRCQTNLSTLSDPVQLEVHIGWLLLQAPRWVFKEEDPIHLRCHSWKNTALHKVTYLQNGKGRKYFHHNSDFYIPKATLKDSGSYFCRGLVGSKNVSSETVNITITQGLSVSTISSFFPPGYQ
row,BINDING AMOUNT (RU),Binder
1,28.1 RU,B16
2,1.1 RU,B17
3,50.1 RU,B18

# Molecular target: T3, human FcγRIIb
# Assay: as above
# Protocol: as §3, §4
row,BINDING AMOUNT (RU),Binder
1,31.9 RU,B16
2,0.4 RU,B17
3,55.5 RU,B18

# Molecular target: T6, human FcγRIa
# Assay: as above
# Protocol: as §3, §4
row,BINDING AMOUNT (RU),Binder
1,19.7 RU,B16
2,1.3 RU,B17
3,38.6 RU,B18

# Molecular target: T4, human FcγRIIa(H) (allotype H131)
# Assay: as above
# Protocol: as §3, §4
row,BINDING AMOUNT (RU),Binder
1,204 RU,B16
2,1 RU,B17
3,266 RU,B18

# Molecular target: T7, human FcγRIIIa(F) (allotype F158)
# Assay: as above
# Protocol: as §3, §4
row,BINDING AMOUNT (RU),Binder
1,9.3 RU,B16
2,0.6 RU,B17
3,16.3 RU,B18

# Molecular target: T5, human FcγRIIa(R) (allotype R131)
# Assay: as above
# Protocol: as §3, §4
row,BINDING AMOUNT (RU),Binder
1,120 RU,B16
2,1 RU,B17
3,188 RU,B18
